# The DeepSol protein solubility set
# Assay: soluble on expression in E. coli; label from the status in PepcDB or PDB records
row,Sequence,soluble on expression in E. coli
1,MTRTPFSRRRFLQLSGGLALAGVSLPLWAHDMADMAGGDAHPALRLPEPYKIKLAINKSAVCLAPVAVAEQQKIFSKYNLDVEFVNFGNSTDVLLEAIATGKADAGVGMALRWLKALEQGFDVKLTAGTHGGCLNLLTAKDSPFGGLESLKGQTIGVTDMAGPDKNFFAILLKRHGIDPISDVQWKVYPADLLSVALDKREIAAISGSEPFSYRLLETGKYQLIASNMTGDYANLSCCVLGVSGSLARDHKPAAAALTQAILEAHSYAAAHPESVAQSFLAHALNTSEAEVSGILHGQGHGHHAVGEAFVKELTQYAVDLQRVQVIKPGTDPHQFAESIYANVFA,not soluble
2,MSLGEAEARVVLNMNTGWAFHRGEVESGGQPGLDDSGWIAAIIPHIMQLEKKHCGGDIIYDGVGWYRRTFRVPSQYKDKQIKISFEGVMNACEVYLNGQKISAHRGGYVGFVTDITTRINWDRDNLLAVRVSAEYDPLTPPGKPQAGMDFYYYSGIYRDVEMVISDPLHITHALEEEEVAGGGIFVTYPVVGKEKAVTHVKAHVRNEGKRKRKAQLRTQLIDKSGKIVACQLTPFRLSAGEAIHLEQNLEIVHPSLWHPYDPNLYTLQNEIVENGKVVDCHTESIGIRTIAYTRDGGFYINGESLYLRGANRHQAFAHIGDAAANSMQERDVIDLKRGGCNAVRAAHYPQDPAFLAACDKYGLLVVECIPGWQYFKNDSTFISRLYEVGKQMIRRDRNHPSVILWETALNESRYPAEIARNLYAIAHIEYPGDQMYTAGDYFGHADRVDCFDVFYKQVSRFPKDGDVMSNYPEDQIAVKPLFCREWGDGVGEKPRVSLMENEEEQLKQCRGRFLQLNGHGYFDWCMLDANPRMGGHFLWSYNDYARGAEQETMFCGIVDINRYPKFSYYMMQSMRDKEISQEGHHHHHH,soluble
3,MGSDKIHHHHHHMLFRASRSDMSNLTNCITNESVAVTADKKPVIGRIHSFESCGTVDGPGIRFITFFQGCLMRCLYCHNRDTWDTHGGKEITVEDLMKEVVTYRHFMNASGGGVTASGGEAILQAEFVRDWFRACKKEGIHTCLDTNGFVRRYDPVIDELLDVTDLVMLDLKQMNDEIHQNLVGVSNHRTLEFAQYLSKKNVKVWIRYVVVPGWSDDDDSAHRLGEFTRDMGNVEKIELLPYHELGKHKWVAMGEEYKLDGVKPPKKETMERVKGILEQYGHKVMY,not soluble
4,MSLKQYKAYLIDLDGTMYMGTDEIDGAKQFIDYLNVKGIPHLYVTNNSTKTPEQVTEKLREMHIDAKPEEVVTSALATADYISEQSPGASVYMLGGSGLNTALTEAGLVIKNDEHVDYVVIGLDEQVTYEKLAIATLGVRNGATFISTNPDVSIPKERGLLPGNGAITSVVSVSTGVSPQFIGKPEPIIMVKALEILGLDKSEVAMVGDLYDTDIMSGINVGMDTIHVQTGVSTLEDVQNKNVPPTYSFKDLNEAIAELEKEGHHHHHH,soluble
5,MSEPMSERERWQLELDKLQRGLQGDPFAFLGPQRDPGGEGGVLRAYLPGAQRVELLDEDGATLAELEQSDPGSGLFQRHLERLPPRYRLRVHWPDGVQESEDPYAFGPLLGELDLYLFAEGNHRQLASCLGAQLTRHEGVEGVRFAVWAPNAVRVSVVGDFNGWDGRRHPMRRRYPSGVWELFVPRLGEGELYKYELQGHDGLLPLKADPLALACETPPGTASKTCAALRHEWRDQDWLARRAERQGYAAP,not soluble
6,MIFPVARYALRWLRRPEDRAFSRAAMEMALRGVRKVLCVAEKNDAAKGIADLLSNGRMRRREGLSKFNKIYEFDYHLYGQNVTMVMTSVSGHLLAHDFQMQFRKWQSCNPLVLFEAEIEKYCPENFVDIKKTLERETRQCQALVIWTDCDREGENIGFEIIHVCKAVKPNLQVLRARFSEITPHAVRTACENLTEPDQRVSDAVDVRQELDLRIGAAFTRFQTLRLQRIFPEVLAEQLISYGSCQFPTLGFVVERFKAIQAFVPEIFHRIKVTHDHKDGIVEFNWKRHRLFNHTACLVLYQLCVEDPMATVVEVRSKPKSKWRPQALDTVELEKLASRKLRINAKETMRIAEKLYTQGYISYPRTETNIFPRDLNLTVLVEQQTPDPRWGAFAQSILERGGPTPRNGNKSDQAHPPIHPTKYTNNLQGDEQRLYEFIVRHFLACCSQDAQGQETTVEIDIAQERFVAHGLMILARNYLDVYPYDHWSDKILPVYEQGSHFQPSTVEMVDGETSPPKLLTEADLIALMEKHGIGTDATHAEHIETIKARMYVGLTPDKRFLPGHLGMGLVEGYDSMGYEMSKPDLRAELEADLKLICDGKKDKFVVLRQQVQKYKQVFIEAVAKAKKLDEALAQYFGNGTELAQQEDIYPAMPEPIRKCPQCNKDMVLKTKKNGGFYLSCMGFPECRSAVWLPDSVLEASRDSSVCPVCQPHPVYRLKLKFKRGSLPPTMPLEFVCCIGGCDDTLREILDLRFSGGPPRASQPSGRLQANQSLNRMDNSQHPQPADSRQTGSSKALAQTLPPPTAAGESNSVTCNCGQEAVLLTVRKEGPNRGRQFFKCNGGSCNFFLWADSPNPGAGGPPALAYRPLGASLGCPPGPGIHLGGFGNPGDGSGSGTSCLCSQPSVTRTVQKDGPNKGRQFHTCAKPREQQCGFFQWVDENTAPGTSGAPSWTGDRGRTLESEARSKRPRASSSDMGSTAKKPRKCSLCHQPGHTRPFCPQNR,soluble
7,MSRGSGILPDESMFAEFKRQCLSTENWVNKYDKNDMEVWVEQAPLSASINNKGNYSKVHKIRCQINIKDVSAATMYDVLHDGQYRKTWDPTMLESFDIARLAHNADVGYYSWICPKPLKNRDVVTLRSWQASENEYVIINFSVKHPKYPPRKDLVRAVSLMTGYLIKPTGPQSCIFTYLSQADPKGSLPKWVVNKASQVLAPKVLRSAHKAGQNYPAWKAANSPDHKPWLYPIQSELAMMDPAELSIQRGDSLENVDESSTRDAQENEDSS,not soluble
8,MSFFTKEQQPKENCPPITVEKARQLFEFNTNHLSLSDYHHQTVLKTSKQLVAQHLMPNATDNLSQHFLMNYKANNNYLGFQASIVDFFTDSAVANFSSSYVYESQEKIIRLPKPTKISTALSTCIIKRRSHRQFSDRQMPLQDLSNILYYACGVSSQASIRDGASDKITLRNCASGGGLYPIHLVFYARNISKLIDGFYEYLPYQHALRCYRHSSEENVRDFAEYGAINAENCNIIIIYVYHYMKNTRKYGNQATAYAFIESGEIAQNIQLTATALTYGSIDIGGYNKEYLQELLDLDGLGEHVIHMTLVGTKESQ,not soluble
9,ATEPFMKGRVKLLPDILPGKNKDHEFEALVSTIQDMSLKMMELMVERPPRELILSMRRNKNPMYQINFASANISTSIAVKQELLEISKMKDRGYRLLYLLHKELQVMELKASIQMKTREEMDKQQKEYFLQQQIKTIQEELGGNINDIEVQELRTKAATMKWSSEVAETFEKELRKLERLHPQSPDYSVQMQYVQTIISLPWGVFSKDNFNLKRAQSVLDRDHFGLEKVKERIIEHLAVLKMKGDMKSPIICLYGPPGVGKTSLGKSIAESLGRKYVRISLGGLHDEAEIRGHRRTYIGAMCGRIIQSLQRAGTSNPVFVLDEIDKIDSDYKGDPSSALLEVLDPEQNNAFHDNYLDIDFDLSHVLFIATANSLSSISRPLLDRMELIDV,not soluble
10,GPGSMNRDPDNGLWYATLRGRTLLGEEVQLPESGIVGMTTVTTSKPSCSPFPTPASLSTFPPQIAEVGELEMVDEVFIEACAPRYVVWDHGRAPSPAASLLQWMMLAEVLHGPSKWAQGEGDTSL,not soluble
11,MYINVVKCMWKQIKHRFEGYPSRMYVARKIIDLGFRIDRNGKIYCDDVEISDVALARAVGVDRRTVRATANTILEDEKLRGIFENMMPAGALLRDAAGELDFGVVEIEADARNPGILAAAARLIADKGISIRQAHAGDPELDETPRLTIITETPIPGGLLKDFLKIDGVKRVSIY,soluble
12,MGLDISDETLKIQKKKENENRVIILMIPGNPGNEGFYAHFGREVLQNLIKKDEDEQKNLKNQYLFYTVSSLNHVRMPDHLKDDGEHRNHDRISLEEQVNHKLSFVKEHLPRGKQLYILGHSIGSYMMLRIIPEVIKEGFHVEKAVGLFPTIVHMANSPNGKRLHGTLATLNHHDWLTKTICWWVDYLPNSIKKFLVGLNLRHPNTPPEIVDAAVELVHMDVFRNIVHMSNDELDIVLDLDERLLEKQDVVHFYYGLKDGWCPVQHGYSMRDRLGEEQVTLDEDNCEHAFVISEGDIMARNVIKYFD,not soluble
13,MKTFTVQFHREDDVEAMNVGKLSQEDFDKATEGGTRHLFDLDTNIGYFVFFDAEDNEGKVSYLMLQYEEDNEDPSACYSFELKDFYEFMALYLNDLEFAEEEEMAEDGEEEYGPIHHLAHLLYHIVEKGKTVEV,not soluble
